Positions count from the first letter of the chain named.
B1: Sb#11 (VHH)
VHH: QVQLVESGGGLVQAGGSLRLSCAASGFPVETENMHWYRQAPGKEREWVAAIYSHGMWTAYADSVKGRFTISRDNTKNTVYLQMNSLKPEDTAVYYCEVEVGKWYFGQGTQVTVS
B2: Sb#20 (VHH)
VHH: QVQLVESGGGLVQAGGSLRLSCAASGFPVEQREMEWYRQAPGKEREWVAAIDSNGNYTFYADSVKGRFTISRDNAKNTVYLQMNSLKPEDTAVYYCYVYVGKSYIGQGTQVTVS
B3: Sb#5 (VHH)
VHH: QVQLVESGGGLVQAGGSLRLSCAASGFPVFSGHMHWYRQAPGKEREWVAAILSNGDSTHYADSVKGRFTISRDNAKNTVYLQMNSLKPEDTAVYYCRVHVGAHYFGQGTQVTVS
B4: Sb#17 (VHH)
VHH: QVQLVESGGGLVQAGGSLRLSCAASGFPVAGRNMWWYRQAPGKEREWVAAIYSSGTYTEYADSVKGRFTISRDNAKNTVYLQMNSLKPEDTAVYYCHVWVGSLYKGQGTQVTVS
B5: Sb#9 (VHH)
VHH: QVQLVESGGGLVQAGGSLRLSCAASGFPVSSSTMTWYRQAPGKEREWVAAINSYGWETHYADSVKGRFTISRDNAKNTVYLQMNSLKPEDTAVYYCYVYVGGSYIGQGTQVTVS
B6: Sb#19 (VHH)
VHH: B5 VHH with S30N, S32H, T33E, N52Q, Y54T, W56T, E57V, H59E, G102S, I105L
B7: Sb#1 (VHH)
VHH: QVQLVESGGGLVQAGGSLRLSCAASGFPVRKANMHWYRQAPGKEREWVAAIMSKGEQTVYADSVEGRFTISRDNAKNTVYLQMNSLKPEDTAVYYCRVFVGWHYFGQGTQVTVS
B8: Sb#8 (VHH)
VHH: B3 VHH with F30N, S31A, H33N, L52Q, N54Y, D56R, S57T, H59Y, H99F, A102M
B9: Sb#13 (VHH)
VHH: QVQLVESGGGLVQAGGSLRLSCAASGFPVYASNMHWYRQAPGKEREWVAAIESQGYMTAYADSVKGRFTISRDNAKNTVYLQMNSLKPEDTAVYYCWVIVGEYYVGQGTQVTVS
B10: Sb#10 (VHH)
VHH: QVQLVESGGGLVQAGGSLRLSCAASGFPVQSHYMRWYRQAPGKEREWVAAIESTGHHTAYADSVKGRFTISRDNAKNTVYLQMNSLKPEDTAVYYCTVYVGYEYHGQGTQVTVS
B11: Sb#6 (VHH)
VHH: QVQLVESGGGLVQAGGSLRLSCAASGFPVEQGRMYWYRQAPGKEREWVAAIISHGTVTVYADSVKGRFTISRDNAKNTVYLQMNSLKPEDTAVYYCYVYVGAQYWGQGTQVTVS
B12: Sb#12 (VHH)
VHH: B11 VHH with E30K, Q31A, G32S, I52Q, H54F, T56E, V59W, Y99W, A102Q, Q103E
B13: Sb#2 (VHH)
VHH: QVQLVESGGGLVQAGGSLRLSCATSGFPVYQANMHWYRQAPGKEREWVAAIQSYGDGTHYADSVKGRFTISRDNAKNTVYLQMNSLKPEDTAVYYCRAVYVGMHYFGQGTQVTVS
B14: Sb#3 (VHH)
VHH: QVQLVESGGGLVQAGGSLRLSCAASGFPVNYKTMWWYRQAPGKEREWVAAIWSYGHTTHYADSVKGRFTISRDNAKNTVYLQMNSLKPEDTAVYYCVVWVGHNYEGQGTQVTVS

The binders below were run against SARS-CoV-2 RBD construct consisting of residues Pro330-Gly526 fused to Venus YFP (RBD-vYFP) (SARS-CoV-2, UniProt P0DTC2).
B1: binds.
B2: binds.
B3: binds.
B4: binds.
B5: binds.
B6: binds.
B7: binds.
B8: binds.
B9: binds.
B10: binds.
B11: binds.
B12: binds.
B13: binds.
B14: binds.

From doi:10.1101/2020.04.16.045419 (bioRxiv, 2020)
